Data from PMC6915026.

Biological target: alpha-synuclein (UniProt P37840 1-140)
Assay: interdigitated electrode current change (aptamer-GNP immobilized); 1 uM protein; titration 10 pM-1 uM, detection limit 10 pM (not a Kd); Aptamer-GNP on APTES-modified IDE, blocked with 1 M ethanolamine (30 min, RT); PBS listed as reagent, binding buffer, salt, pH and temperature not stated

B1: antisynuclein aptamer (ssDNA)
DNA: ATAGTCCCATCATTCATTGTATGGTACGGCGCGGTGGCGGGTGCGTGGAGATATTAGCAAGTGTCA
binding result: binds
